The series deals with the molecule itself. The series is described as follows: cryo-EM structure.

B1: human Kir7.1 R162Q mutant (natural protein)
chain: MDSSNCKVIAPLLSQRYRRMVTKDGHSTLQMDGAQRGLAYLRDAWGILMDMRWRWMMLVFSASFVVHWLVFAVLWYVLAEMNGDLELDHDAPPENHTICVKYITSFTAAFSFSLETQLTIGYGTMFPSGDCPSAIALLAIQMLLGLMLEAFITGAFVAKIAQPKNRAFSIRFTDTAVVAHMDGKPNLIFQVANTRPSPLTSVRVSAVLYQERENGKLYQTSVDFHLDGISSDECPFFIFPLTYYHSITPSSPLATLLQHENPSHFELVVFLSAMQEGTGEICQRRTSYLPSEIMLHHCFASLLTRGSKGEYQIKMENFDKTVPEFPTPLVSKSPNRTDLDIHINGQSIDNFQISETGLTE
Turning to B1, the stoichiometry N (as a rule, a count of units in the complex or per binding partner) came out at 4.

B2: human Kir7.1 E276A mutant (natural protein)
chain: MDSSNCKVIAPLLSQRYRRMVTKDGHSTLQMDGAQRGLAYLRDAWGILMDMRWRWMMLVFSASFVVHWLVFAVLWYVLAEMNGDLELDHDAPPENHTICVKYITSFTAAFSFSLETQLTIGYGTMFPSGDCPSAIALLAIQMLLGLMLEAFITGAFVAKIARPKNRAFSIRFTDTAVVAHMDGKPNLIFQVANTRPSPLTSVRVSAVLYQERENGKLYQTSVDFHLDGISSDECPFFIFPLTYYHSITPSSPLATLLQHENPSHFELVVFLSAMQAGTGEICQRRTSYLPSEIMLHHCFASLLTRGSKGEYQIKMENFDKTVPEFPTPLVSKSPNRTDLDIHINGQSIDNFQISETGLTE
Regarding B2, the “stoichiometry N” value was found to be 4.

The record behind these values is publication PMC11185801 (bioRxiv, 2024).
